Source: paper PMC6399291

Experiments:
14-3-3β = 14-3-3β (UniProt P31946); assay: GFP-14-3-3β IP, anti-myc blot; conditions: reference: wild type; sites S351,S377
CDK4 [1] = target: CDK4 (UniProt P11802); assay: reciprocal co-IP, anti-GFP or anti-CDK4; conditions: reference: wild type; sites S351,S377
CDK4 [2] = target: CDK4 (UniProt P11802); assay: glutathione-bead pull-down from co-transfected cells, anti-Flag blot; conditions: sites S351,S377

UniProt P11802, sequence (P11802 whole entry, looked up): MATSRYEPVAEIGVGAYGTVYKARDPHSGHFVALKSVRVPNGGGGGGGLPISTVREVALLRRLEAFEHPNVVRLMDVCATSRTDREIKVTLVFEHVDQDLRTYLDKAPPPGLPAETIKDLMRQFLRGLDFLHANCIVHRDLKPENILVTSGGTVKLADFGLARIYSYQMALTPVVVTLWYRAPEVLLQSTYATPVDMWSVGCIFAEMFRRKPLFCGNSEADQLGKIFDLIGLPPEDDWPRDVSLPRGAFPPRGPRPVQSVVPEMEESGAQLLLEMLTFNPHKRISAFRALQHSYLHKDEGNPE
UniProt P31946, sequence (P31946 whole entry, looked up): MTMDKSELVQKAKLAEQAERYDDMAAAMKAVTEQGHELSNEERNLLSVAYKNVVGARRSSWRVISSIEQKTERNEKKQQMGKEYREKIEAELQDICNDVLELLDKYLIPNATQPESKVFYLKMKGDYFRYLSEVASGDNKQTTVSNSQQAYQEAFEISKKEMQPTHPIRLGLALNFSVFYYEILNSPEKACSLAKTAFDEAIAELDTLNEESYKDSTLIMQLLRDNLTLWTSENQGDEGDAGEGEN

## PIKE-A (from UniProt Q99490-2) S351/377A (SA)
14-3-3β
  binding against the reference: weaker

## PIKE-A (from UniProt Q99490-2) SA
CDK4 [1]
  binding against the reference: weaker

## PIKE-A (from UniProt Q99490-2) SA + myc-AMPKα T172A
CDK4 [2]; reference: wild type + myc-AMPKα T172A
  binding against the reference: weaker

## PIKE-A (from UniProt Q99490-2) SA + myc-AMPKα T172D
CDK4 [2]; reference: wild type + myc-AMPKα T172D
  binding against the reference: weaker
